Measurements taken from patent publication US20090280135A1.
One block for each binder: values may come before it.

Legend:
[1] = target: rat BV8S2 TCR of the A1 T-cell hybridoma (C14/BW12-12A1), specific for Gp-BP-72-89 (rat); experiment: flow cytometry on A1 hybridoma
[2] = target: TCR of the MBP-69-89 specific short-term rat T-cell line (rat); experiment: cell-based or functional assay
[3] = target: rat BV8S2 TCR of the A1 T-cell hybridoma (C14/BW12-12A1), specific for Gp-BP-72-89 (rat); experiment: flow cytometry on A1 hybridoma, 10 µM complex, 17 h at 4 C, detection with OX6-PE
[4] = target: rat BV8S2 TCR of the A1 T-cell hybridoma (C14/BW12-12A1), specific for Gp-BP-72-89 (rat); experiment: flow cytometry on A1 hybridoma with directly A488-labelled complex, 3 h at 4 C
[5] = target: TCR of the cardiac myosin CM-2-specific cell line (rat); experiment: flow cytometry on CM-2 cell line (blocked with unconjugated OX6), 10 µM complex, detection with OX6-PE

fold increase in MFI over background [1]: 10 fold
inhibition of proliferation ([3H]thymidine) of MBP-69-89 specific T-cell line after pre-treatment with 10 nM complex [2]: > 90%
mean fluorescence intensity (MFI) [3]: 800 Units
B1: β1α1/MBP-69-89 complex (rat RT1.B β1α1 construct loaded with MBP-69-89 peptide) (peptide-MHC)
chain: MGRDSPRDFVYQFKGLCYYTNGTQRIRDVIRYIYNQEEYLRYDSDVGEYRALTELGRPSAEYFNKQYLEQTRAELDTVCRHNYEGSEVRTSLRRLGGQDDIEADHVAAYGINIYQYYESRGQFTHEFDGDEEFYVDLDKKETIWRIPEFGQLTSFDPQGGLQNIAIIKHNLEILMKRSNSTQAVN
peptide: GSLPQKSQRSQDENPVVHF

MCI [4]: 300 Units
B2: A488-conjugated β1α1 loaded with MBP-69-89 (peptide-MHC)
chain: MGRDSPRDFVYQFKGLCYYTNGTQRIRDVIRYIYNQEEYLRYDSDVGEYRALTELGRPSAEYFNKQYLEQTRAELDTVCRHNYEGSEVRTSLRRLGGQDDIEADHVAAYGINIYQYYESRGQFTHEFDGDEEFYVDLDKKETIWRIPEFGQLTSFDPQGGLQNIAIIKHNLEILMKRSNSTQAVN
peptide: GSLPQKSQRSQDENPVVHF
modifications: Alexa-488 dye conjugated (molar ratio dye/protein=1), site not stated

mean fluorescence intensity (MFI) [5]: 1800 Units
B3: β1α1/CM-2 complex (rat RT1.B β1α1 construct loaded with cardiac myosin peptide CM-2) (peptide-MHC)
chain: MGRDSPRDFVYQFKGLCYYTNGTQRIRDVIRYIYNQEEYLRYDSDVGEYRALTELGRPSAEYFNKQYLEQTRAELDTVCRHNYEGSEVRTSLRRLGGQDDIEADHVAAYGINIYQYYESRGQFTHEFDGDEEFYVDLDKKETIWRIPEFGQLTSFDPQGGLQNIAIIKHNLEILMKRSNSTQAVN
peptide: KLELQSALEEAEASLEH

inhibition of proliferation ([3H]thymidine) of MBP-69-89 specific T-cell line after pre-incubation with 20 µM complex [2]: 27%
B4: β1α1/MBP-55-69 complex (rat RT1.B β1α1 loaded with Gp-MBP-55-69 peptide) (peptide-MHC)
chain: MGRDSPRDFVYQFKGLCYYTNGTQRIRDVIRYIYNQEEYLRYDSDVGEYRALTELGRPSAEYFNKQYLEQTRAELDTVCRHNYEGSEVRTSLRRLGGQDDIEADHVAAYGINIYQYYESRGQFTHEFDGDEEFYVDLDKKETIWRIPEFGQLTSFDPQGGLQNIAIIKHNLEILMKRSNSTQAVN
peptide: SGKDSHHAARTTHYG
